Read-outs that look alike come from different tables or passages of the source.
What was measured:
Test in all cases: cryo-EM structure
[1] = biological target: major capsid protein gp23* (cleaved form of gp23) of bacteriophage T4 (bacteriophage T4)
[2] = biological target: the molecule itself
[3] = biological target: the molecule itself; remark: listed apart in the source

## major capsid protein gp23* (cleaved form of gp23) of bacteriophage T4 (natural protein)
[1]
  stoichiometry N: 6

B1: vertex protein gp24* (cleaved form of gp24) of bacteriophage T4 (natural protein, UniProt P19896 11-427, looked up)
chain: STTTNSNSIGRPNLVALTRATTKLIYSDIVATQRTNQPVAAFYGIKYLNPDNEFTFKTGATYAGEAGYVDREQITELTEESKLTLNKGDLFKYNNIVYKVLEDTPFATIEESDLELALQIAIVLLKVRLFSDAASTSKFESSDSEIADARFQINKWQTAVKSRKLKTGITVELAQDLEANGFDAPNFLEDLLATEMADEINKDILQSLITVSKRYKVTGITDSGFIDLSYASAPEAGRSLYRMVCEMVSHIQKESTYTATFCVASARAAAILAASGWLKHKPEDDKYLSQNAYGFLANGLPLYCDTNSPLDYVIVGVVENIGEKEIVGSIFYAPYTEGLDLDDPEHVGAFKVVVDPESLQPSIGLLVRYALSANPYTVAKDEKEARIIDGGDMDKMAGRSDLSVLLGVKLPKIIIDE
[2]
  stoichiometry N: 5

B2: Soc (small outer capsid protein) of bacteriophage T4 (natural protein, UniProt P03715 1-80, looked up)
chain: MASTRGYVNIKTFEQKLDGNKKIEGKEISVAFPLYSDVHKISGAHYQTFPSEKAAYSTVYEENQRTEWIAANEDLWKVTG
[3]
  stoichiometry N: 3
